What all share (details): both partners purified
The target of assay [1] is LC3B R11A (for ITC) (human, UniProt Q9GZQ8 1-120, R11A). Nature of the assay: ITC; 25 °C, VP-ITC; peptides 0.31 mM titrated into 0.018 mM LC3B proteins in 25 steps; 40 mM Na2HPO4, 80 mM NaCl, pH 7.0; one-site binding model. In general terms: Isothermal titration calorimetry measures the heat released or taken up as one component is titrated into another.
Assay [2] has as its target LC3B K49A (for ITC) (human, UniProt Q9GZQ8 1-120, K49A). Described as above.
In assay [3] the target is LC3B K51A (for ITC) (human, UniProt Q9GZQ8 1-120, K51A). The assay is described as above.
The target of assay [4] is T1, LC3B wild type (for ITC and NMR) (human, UniProt Q9GZQ8 1-120). The assay is described as above.
Assay [5] has as its target T1, LC3B wild type (for ITC and NMR). Nature of the assay: ITC; rows marked WT*: previous set of conditions reported by Novak et al.: 50 mM NaPi, 150 mM NaCl, pH 7.5.
Assay [6] addresses LC3B wild type (for ITC and NMR) (human, UniProt Q9GZQ8 1-120). Nature of the assay: ITC; 25 °C, VP-ITC; peptides 0.31 mM titrated into 0.018 mM LC3B proteins in 25 steps; 40 mM Na2HPO4, 80 mM NaCl, pH 7.0; one-site binding model. The source holds these as a separate data set.

Take RPEEQMESDNCSGGDDDWTHLS [p62 LIR peptide]: the Ka in assay [1] came out at 233000 M⁻¹; in assay [2], 1.02e+06 M⁻¹; in assay [3], 34000 M⁻¹; in assay [4] it was 498000 M⁻¹; in assay [5] it was 680000 M⁻¹. Further, the Kd (as a rule, the constant that tells how readily two partners part at equilibrium) is 4.29 µM in assay [1]; 0.98 µM in assay [2]; 29 µM in assay [3]; 2.01 µM in assay [4]; 1.47 µM in assay [5]. For the same molecule, the dH is -8.22 ± 0.23 kcal/mol in assay [1]; -10.84 ± 0.01 kcal/mol in assay [2]; -4.7 ± 0.01 kcal/mol in assay [3]; -9.38 ± 0.17 kcal/mol in assay [4]; -10.5 ± 0.13 kcal/mol in assay [5]. The stoichiometry N (in general, the number of molecules, sites or subunits per partner or assembly) in assay [1] turned out to be 1.06 ± 0.02; in assay [2] it was 0.99 ± 0.01; in assay [4], 1.04 ± 0.01; in assay [5], 0.99 ± 0.01.

B1: Nix LIR P0 peptide (unphosphorylated) (peptide)
peptide: AGLNSSWVELPMNSSNG
notes: Nix LIR motif peptide without phosphorylation of Ser34 and Ser35; also called non-phosphorylated P0 peptide; source: synthetic peptide, bought: GenScript USA Inc, 95% pure
Take B1: the Kd in assay [6] amounted to 99 µM.
